Assay results published in patent US6221617A, “Bioassay for growth hormone releasing hormone” (priority 1997, dated 2001).
Where two headings read alike, the source gives them in different places.

Tests used:
[1] = system: rat anterior pituitary cell cultures; experiment: Rat primary anterior pituitary cell bioassay (GH release, radioimmunoassay); assay type: cell-based
Protocol: Rat anterior pituitary cell cultures were prepared for measuring the biological activity of GHRH, GHRH-induced release of GH was quantified using radioimmunoassay. Anterior pituitaries from fifteen female Sprague-Dawley rats were placed in a solution of Gey's media supplemented with 1% BSA, 0.25% glucose, and 0.2 mM MEM non essential amino acids at pH 7.4. Cell dispersion was performed in a solution of 400 U/ml trypsin in supplemented Gey's media for 30 minutes, 1750 KU/ml DNase-I in supplemented Gey's media for 5 minutes, and cells were triturated 15-30 times in 0.6 mg/ml lima bean trypsin inhibitor in supplemented Gey's media. Cells were filtered thru 160 u and 100 u mesh and centrifuged for 3 minutes at 1100 RPM and 12 minutes at 1600 rpm. Cell pellet was suspended at 3×10^5 cells/ml in DMEM supplemented with 10% fresh rat serum, 3% horse serum, 2.5% fetal calf serum, 2% Antibiotic-Antimycotic, 0.3% Fungizone, 0.45% glucose, 25 mM Hepes, 4 mM glutamine, 1 mM sodium pyruvate, 1 nM 3,3',5-triiodo-L -thyronine (T3), 100 nM dexamethazone and 10 uM MEM non essential amino acids. Cells were plated at 1 ml/well in 24 well plates and incubated at 8% CO2 at 37 C. for 68-72 hours. To stimulate cells with hormones, cells were washed three times in Gey's media supplemented with 1% BSA, 0.45% glucose and 25 mM Hepes. GHRH (1-44)NH2 was added to cells in 1 ml of supplemented Gey's media and cells were incubated for 3 hours before collecting media. Rat growth hormone levels were quantitated using a radioimmunoassay kit (Amersham).
(§1) Predicted variances in SEAP responses=0.32×(Y)^154.

[2] = target: T1, porcine GHRH receptor (Sus scrofa, UniProt P34999)
T1 sequence (P34999 23-423): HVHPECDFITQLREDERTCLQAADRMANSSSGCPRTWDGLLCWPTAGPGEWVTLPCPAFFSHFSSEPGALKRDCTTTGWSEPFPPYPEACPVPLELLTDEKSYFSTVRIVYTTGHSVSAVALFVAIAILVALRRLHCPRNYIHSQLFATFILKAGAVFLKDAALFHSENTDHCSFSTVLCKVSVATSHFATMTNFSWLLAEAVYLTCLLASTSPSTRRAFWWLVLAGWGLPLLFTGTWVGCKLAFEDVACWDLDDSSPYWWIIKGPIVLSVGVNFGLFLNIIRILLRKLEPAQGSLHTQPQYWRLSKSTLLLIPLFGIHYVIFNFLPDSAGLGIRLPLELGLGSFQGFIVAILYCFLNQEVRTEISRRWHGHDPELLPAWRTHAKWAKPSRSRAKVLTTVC
Protocol: Assays for secreted alkaline phosphatase (SEAP) were performed using the chemiluminescent substrate in the Great Escape Detection Kit (Clontech). Culture medium was centrifuged at 14000 rpm in a microfuge centrifuge to remove cell debris. One hundred microliters of culture medium was then added to 300 ul of dilution buffer and heated at 65 C. for 30 minutes. Samples were cooled to room temperature and 100 ul of diluted sample was added to 100 ul of assay buffer. Samples were allowed to set for 5 minutes. One hundred microliters of the CSPD substrate solution was then added to each sample, incubated in the dark for 10 minutes and read on a Wallac LKB 1251 tube luminometer.
A stable transfection was performed in pGHRHr/293 cells using the cAMP-responsive SEAP reporter construct, pha180SEAPpur and stable transfectants were selected on the basis of puromycin resistance. pha180SEAPpur was transfected into pGHRHr/293 cells at 1, 2, 4, 8 and 16 ug/ml Opti-MEM using 8 ul of Lipofectin/ml in six well culture plates. After six hours, 1 ml of 20% fetal calf serum in DME (high glucose) was added to the cells. Twenty-four hours post-transfection the cells were subcultured 1:18 and were incubated in 250 ug/ml G418. Forty-eight hours post-transfection the media was replaced with selectable medium containing 250 ug/ml G418 and 1 ug/ml puromycin. Cells were incubated for three weeks and picked using Trypsin-EDTA treated Whatman 3MM paper and placed in 24 well plates. Upon growing stable isolates to confluency in T75 cm^2 culture flasks, pGHRHr/SEAP/293 cells were removed from flasks, plated in 24 well plates at 1×10^5 cells/well and stimulated with various doses of recombinant human GHRH (1-44)NH2. Media was collected and assayed for secreted placental alkaline phosphatase. Time course studies were performed over a 20 hour period to determine the optimal time to remove media samples from the tissue cultures during stimulation with GHRH. Comparisons of synthetic and recombinant human GHRH (1-44)NH2 (10^-13 to 10^-7 M) were also made. Data was analyzed using FOURFIT and ALLFIT, four parameter logistic curve fitting programs.
Sigmoidal dose response curves were fit by four parameter logistic curve fitting using FOURFIT (Grotjan and Steinberger, 1977), with multiple curves being compared using ALLFIT (DeLean et al.,1978). […] For cAMP and SEAP bioassays, a weighted regression analysis was performed with weights assigned as the reciprocal of predicted variance.

[3] = target: T1, porcine GHRH receptor; experiment: cAMP accumulation assay of the pGHRHr/293 cell line; assay type: cell-based; design: host or cells: human fetal kidney 293 cells (pGHRHr/293), stably expressing, G418-selected; settings: pGHRHr/293 cells, 45 minutes, 10^-12 to 10^-6 M
Protocol: The media was then replaced with DME containing 0.1% BSA and 0.1 mM 3-isobutyl-1-methyl-xanthine. Doses of recombinant human GHRH (1-44)NH2 doses, 1×10^-6 M to 1×10^-12 M, were added and the cells were incubated for 45 minutes at 37° C. They were lysed in 60% ethanol and cAMP levels were quantitated by an immunoassay kit (Amersham). After performing the cAMP EIA, data was analyzed using Fourfit, a four parameter logistic curve fitting program.
as §1

[4] = target: T1, porcine GHRH receptor; experiment: SEAP reporter expression in pGHRHr/293 cells transiently transfected with pha180SEAP; assay type: cell-based; design: host or cells: human fetal kidney 293 cells (pGHRHr/293), stably expressing, G418-selected; settings: transiently transfected pGHRHr/293 cells, 6 hours
Protocol: Samples were allowed to set for 5 minutes.
The efficacy of the cAMP-responsive promoter was evaluated by transient transfection assays using 293 and pGHRHr/293 cells. Transiently transfected 293 cells were stimulated with 1 mM 8-bromo cAMP for 20 hours, while pGHRHr/293 cells were stimulated with various concentrations of recombinant human GHRH for 6 hours.
The ability of GHRH to stimulate the expression of the SEAP reporter cDNA was evaluated using pGHRHr/293 cells transiently transfected with pha180SEAP. Cells were incubated with various doses of GHRH(1-44)NH2 (10^-10 to 10^-6 M) for 6 hours and media was then assayed for SEAP activity.

[5] = primary rat pituitary cell cultures, 3 hours
[6] = pGHRHr/SEAP/293 cells, 16 hour incubation

Substance | ED50 of GH secretion [1, 5] | increase in GH secretion into the medium [1, 5] | potency relative to synthetic GHRH (times as potent) ([1]; rat pituitary bioassay) | calculated ED50 of SEAP dose-response curves ([2]; after 12, 14, 16 and 18 hours of exposure, not significantly different) | SEAP activity increase over the 12-16 hour time points ([2]; at 18 hours) | SEAP activity increase over the 12-16 hour time points ([2]; at 20 hours) | increase in SEAP activity ([2]; pGHRHr/SEAP/293 #815-4, between 12 and 18 hours of exposure) | calculated ED50 of SEAP expression [2, 6] | increase in SEAP expression ([2]; pGHRHr/SEAP/293 cells, 16 hour incubation, 10^-13 to 10^-7 M) | potency relative to synthetic GHRH (times as potent) ([2]; pGHRHr/SEAP/293 reporter bioassay, p<0.0001) | calculated ED50 of increase in intracellular cAMP concentration [3] | increase in the expression of the reporter protein (SEAP) ([4]; 10^-10 to 10^-6 M) | ED50 of SEAP reporter expression [4] | EC50 ([1]; primary rat pituitary cell cultures, 3 hours, read-out: ED50 of GH secretion) | increase in SEAP expression ([2]; human, pghrhr/seap/293 cells, 16 h) | minimal detectable dose [2, 6] | EC50 ([2]; read-out: calculated ED50 of SEAP expression, pGHRHr/SEAP/293 cells, 16 hour incubation)
recombinant human GHRH (1-44)NH2: Recombinant human GHRH(1-44)NH2 obtained from BioNebraska, Inc. as a powder | 2.16±1.04×10^-10 M | 3.1 fold | 1.69±0.67 times | 0.261 nM | 1.3 fold | 1.7 fold | 4.8 fold | 4.26±0.28×10^-11 M | 9.1 fold | 1.83±0.13 times | 8.4±3.6×10^-9 M | 2.5 fold | 0.51 nM | – | – | – | –
synthetic human GHRH (1-44)NH2: Synthetic human GHRH(1-44)NH2 purchased from Peninsula; reference preparation [reference compound] | – | – | – | – | – | – | – | – | – | – | – | – | – | 0.364 nM | 9.1 fold | 1.47 pM | 0.0778 nM
